Test results from article PMC11968938 (Scientific Reports, 2025).
Where two headings read alike, the source gives them in different places.

What was measured:
[1] = molecular target: the molecule itself; assay: crystal structure
[2] = molecular target: the molecule itself; assay: crystal structure; remark: listed apart in the source

B1: BBH37_(131-312) (domain or fragment, B. burgdorferi B31, UniProt O50692 131-312, looked up)
chain: FFPSTEEEKQADKAIKDIENLIGESGFPELIENVCSLKHEYTLIRSDFYDVITKIQNKKISLMKNSHNNRNKIRELVQLQNNLKIGDELDKIMGCIDTAEQEIRSAAFFFDEAKESLKEGIIKRLEKSKNRAASQLSKKALNRAEDALRCLENYSSKKGEAIGRRSFIKEVVEQAKNALSKS
modifications: Cys165 in a disulfide bond with Cys165 of the other protomer
[1]
  stoichiometry N: 2

B2: BBH37_(119-312) (domain or fragment, B. burgdorferi B31, UniProt O50692 119-312, looked up)
chain: EHNQKKEIKEEDFFPSTEEEKQADKAIKDIENLIGESGFPELIENVCSLKHEYTLIRSDFYDVITKIQNKKISLMKNSHNNRNKIRELVQLQNNLKIGDELDKIMGCIDTAEQEIRSAAFFFDEAKESLKEGIIKRLEKSKNRAASQLSKKALNRAEDALRCLENYSSKKGEAIGRRSFIKEVVEQAKNALSKS
modifications: Cys165 in a disulfide bond with Cys165 of the other protomer
[2]
  stoichiometry N: 2
